In patent publication US20120156198A1 (Hoffmann-La Roche, published 2012):
Numbering of substitutions follows the chain as printed. Each block holds one molecule with its values, some of them ahead of it.

Tests used:
[1] = biological target: human IL-18Rα (IL-18R1) on human cells (KG-1 cells, PBMC, TH1-cultured T cells, whole blood) (human) (UniProt Q13478); experiment: cell-based or functional assay
[2] = biological target: recombinant human IL-18Rα Fc chimera (R&D Systems, Cat. No. 816-LR) (human) (UniProt Q13478); experiment: SPR cross-competition, second experiment; antibody 2 injected on hIL-18Rα hFc held by captured antibody 1 (competitor): Mab840
[3] = biological target: recombinant human IL-18Rα Fc chimera (R&D Systems, Cat. No. 816-LR) (human) (UniProt Q13478); experiment: SPR cross-competition, second experiment; antibody 2 injected on hIL-18Rα hFc held by captured antibody 1 (competitor): Mab1G12
[4] = biological target: recombinant human IL-18Rα Fc chimera (R&D Systems, Cat. No. 816-LR) (human) (UniProt Q13478); experiment: SPR cross-competition, second experiment; antibody 2 injected on hIL-18Rα hFc held by captured antibody 1 (competitor): Mab2D11
[5] = biological target: T1, human IL-18Rα (IL-18R1) on human cells (KG-1 cells, PBMC, TH1-cultured T cells, whole blood) (human, UniProt Q13478 19-541); experiment: cell-based or functional assay
T1 sequence: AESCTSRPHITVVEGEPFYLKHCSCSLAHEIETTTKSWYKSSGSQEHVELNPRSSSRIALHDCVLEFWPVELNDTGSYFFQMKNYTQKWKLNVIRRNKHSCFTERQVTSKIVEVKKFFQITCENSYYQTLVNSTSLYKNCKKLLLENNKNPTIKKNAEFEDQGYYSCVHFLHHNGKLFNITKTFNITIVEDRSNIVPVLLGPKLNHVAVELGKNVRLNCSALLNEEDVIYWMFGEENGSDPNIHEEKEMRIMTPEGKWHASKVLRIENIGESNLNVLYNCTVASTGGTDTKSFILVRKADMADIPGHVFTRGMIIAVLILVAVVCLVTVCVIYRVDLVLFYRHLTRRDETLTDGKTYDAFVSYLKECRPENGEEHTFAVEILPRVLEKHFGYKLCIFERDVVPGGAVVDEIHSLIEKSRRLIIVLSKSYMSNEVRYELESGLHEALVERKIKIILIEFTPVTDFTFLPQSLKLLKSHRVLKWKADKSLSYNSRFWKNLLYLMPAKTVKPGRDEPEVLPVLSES

Molecule: anti-human IL-18Rα murine MAb Clone 70625 (R&D Systems #MAB840) (antibody)
IL-18 induced IFNγ production by human KG-1 cells, IC50 [pM] [1]: 798 pM
percentage of expected binding response for antibody 2 [2]: 13%
percentage of expected binding response for antibody 2 [3]: 97%
percentage of expected binding response for antibody 2 [4]: 97%

B1: humanized Mab1G12-9.6 (antibody, V domains shown)
VH: QVQLVQSGAEVKKPGASVKVSCKASDYTFTSNWMHWVRQAPGQGLEWMGTIDPSDSYTYYNQKFQGRVTMTRDTSTSTVYMELSSLRSEDTAVYYCTTSGDYDADRYFDVWGQGTTVTVSS
VL: EIVLTQSPGTLSLSPGERATLSCRASKSVSTSGDSYMHWYQQKPGQAPRLLIYLASNLETGIPDRFSGSGSGTDFTLTISRLEPEDFAVYYCQQSRELPLSFGQGTKLEIK
human TH1-assay (IFN-γ after IL-18/IL-12 restimulation), IC90 [pM] [5]: 148 pM

B3: humanized Mab1G12-10.6 (antibody, V domains shown)
VH: B1 VH with V68A, R72V
VL: B1 VL
human TH1-assay (IFN-γ after IL-18/IL-12 restimulation), IC90 [pM] [5]: 93.5 pM

B4: humanized Mab1G12-10.5 (antibody, V domains shown)
VH: B1 VH with V68A, R72V
VL: DIQMTQSPSSLSASVGDRVTITCQASKSVSTSGDSYMHWYQQKPGKAPKLLIYLASNLETGVPSRFSGSGSGTDFTFTISSLQPEDIATYYCQQSRELPLSFGQGTKLEIK
human TH1-assay (IFN-γ after IL-18/IL-12 restimulation), IC90 [pM] [5]: 283 pM

Second part, the molecule after the results:

human TH1-assay (IFN-γ after IL-18/IL-12 restimulation), IC90 [pM] [5]: 399 pM
B2: humanized Mab1G12-12.6 (antibody, V domains shown)
VH: B1 VH with D26G, N61A, F64L, R72T, V79A, S84R, E89D
VL: B1 VL

human TH1-assay (IFN-γ after IL-18/IL-12 restimulation), IC90 [pM] [5]: 77 pM
B5: humanized Mab1G12-11.6 (antibody, V domains shown)
VH: B1 VH with D26G, N61A, T76I, V79A, S85R, E89D
VL: B1 VL
